Data taken from patent US20230212587A1, “Mutant Hydroxyphenylpyruvate Dioxygenase Polypeptide, Encoding Gene Thereof and Use Therefor” (Beijing Dabeinong Biotechnology Co., Ltd., priority 2019, published 2023).
Numbering of substitutions follows the chain as printed. Names may count otherwise.

B1: MsHPPD-02: native Medicago sativa HPPD, SEQ ID NO: 99 (protein, listed as Medicago sativa)
chain: MAIETETQTQTGFKLVGFKNFVRANPKSDRFKVKRFHHVEFWCTDATNTARRFSHGLGMPIVAKSDLSTGNQTHASYLLRSGDLNFLFSAAYSPSISLSSPSSTAAIPTFSASNCFSFSASHGLAVRAVAVEVEDAELAFTTSVNNGAIPSSPPVILENHVKLAEVRLYGDVVLRYVSYNDPNPNQNPNLLFLPGFERVSDESSNSSLDFGIRRLDHAVGNVPELSSAVKYVKDFTGFHEFAEFTAEDVGTSESGLNSVVLANNEETVLLPMNEPVYGTKRKSQIETYLEHNEGAGLQHLALKSEDIFRTLREMRKRSGVGGFEFMPSPPVTYYRNLKNRVGDVLSDEQIKECEELGILVDRDDQGTLLQIFTKPIGDRPTIFIEIIQRVGCMLKDEEGKEYQKGGCGGFGKGNFSELFKSIEEYEKTLETRRTA
modifications: MsHPPD Amino Acid Sequence
B2: MsHPPDm-F372A-02: Medicago sativa HPPD mutant F372A, SEQ ID NO: 102 (protein)
chain: B1 chain with F372A
modifications: MsHPPDm-F372A Amino Acid Sequence
B3: BnHPPD-02: native Brassica napus HPPD, SEQ ID NO: 87 (protein, listed as Brassica napus)
chain: MGHENAAVCETQQHDDAASPGFKLVGFSKFVRKNPKSDKFKVKRFHHIEFWCGDATNVSRRFSWGLGMRFSAKSDLSTGNMVHASYLLTSGDLRFLFTAPYSPSLSAGEAQPSATASIPSFDHASCRSFFSSHGLGVRAVAIEVEDAESAFSISVANGAVPSSPPNVLNGAVTIAEVKLYGDVVLRYVSYYNGTVSFLPGFESVDDTSSFPLDYGIRRLDHAVGNVPELGPALTYLAGFTGFHQFAEFTADDVGTAESGLNSAVLANNDEMVLLPINEPVHGTKRKSQIQTFLEHNEGAGLQHLALMSEDIFRTLREMRKRSGVGGFDFMPSPPPTYYKNLKKRVGDVLSEEQIEECEELGILVDRDDQGTLLQIFTKPLGDRPTIFIEIIQRVGCMKRDEEGKVYQSGGCGGFGKGNFSELFKSIEEYEKTLEAKQLVG
modifications: BnHPPD Amino Acid Sequence
B4: BnHPPDm-F372A-02: Brassica napus HPPD mutant F372A, SEQ ID NO: 90 (protein)
chain: B3 chain with F376A
modifications: BnHPPDm-F372A Amino Acid Sequence
B5: HaHPPD-02: native Helianthus annuus HPPD, SEQ ID NO: 93 (protein, listed as Helianthus annuus)
chain: MGTEATVAAVVAGDESDHPTSAFKLVGFKNFIRTNPMSDKFTVKNFHHIEFWCSDATNTARRFSWGLGMPIIFKSDLSTGNSTHASYLLRSGHLNFLFTAPYSPSISPTTTTASIPTFSHSASRHFTATHGLAVRAIAVEVEDAETAFAVSVANGAKPSSPPVTLGHNDVVLSEVKLYGDVVLRYVSYKNNTNNNNNNDNDNYIFLPGFEAMDKTSSFQELDYGIRRLDHAVGNVPELAPAVDYVKSFTGFHEFAEFTAEDVGTSESGLNSVVLACNSEMVLIPMNEPVYGTKRKSQIQTYLEHNEGAGVQHLALASEDIFRTLREMRKRSGVGGFEFMPSPPPTYYRNLKSRAGDVLSDEQIKECEELGILVDRDDQGTLLQIFTKPVGDRPTIFIEIIQRVGCMVKDDEGKVQQKAGCGGFGKGNFSELFKSIEEYEKTLEARSTTAAA
modifications: HaHPPD Amino Acid Sequence
B6: HaHPPDm-F372A-02: Helianthus annuus HPPD mutant F372A, SEQ ID NO: 96 (protein)
chain: B5 chain with F385A
modifications: HaHPPDm-F372A Amino Acid Sequence
B7: ZmHPPD-02: native Zea mays HPPD, SEQ ID NO: 17 (protein)
chain: MPPTPTAAAAGAAVAAASAAEQAAFRLVGHRNFVRFNPRSDRFHTLAFHHVELWCADAASAAGRFSFGLGAPLAARSDLSTGNSAHASLLLRSGSLSFLFTAPYAHGADAATAALPSFSAAAARRFAADHGLAVRAVALRVADAEEAFRTSVAAGARPAFGPVDLGRGFRLAEVELYGDVVLRYVSYPDGAAGEPFLPGFEGVASPGAADYGLSRFDHIVGNVPELAPAAAYFAGFTGFHEFAEFTTEDVGTAESGLNSMVLANNSENVLLPLNEPVHGTKRRSQIQTFLDHHGGPGVQHMALASDDVLRTLREMQARSAMGGFEFMAPPTSDYYDGVRRRAGDVLTEAQIKECQELGVLVDRDDQGVLLQIFPKPVGDRPTLFLEIIQRIGCMERDEKGQEYQKGGCGGFGKGNFSQLFKSIEDYEKSLEAMQAAAAATAQGS
modifications: Zea mays; ZmHPPD Amino Acid Sequence (Zea mays)

Tested on: Arabidopsis thaliana T1 plants
Assay: Topramezone tolerance of transgenic Arabidopsis thaliana T1 plants (pesticide damage grade by bleached leaf area, score, resistance evaluation)
Format: in vivo
Details: HPPDs from different species; number of plants (of 16) in this grade; topramezone 25 g ai/ha (1x), 7 DAT
Procedure, shortened: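 Herbicide tolerance was judged per plant on a bleaching scale (grade 0 no bleaching to grade 3 fully bleached) 7 DAT. Topramezone doses were 0, 25, 50 and 100 g ai/ha on 18-day-old T1 and wild-type plants.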

Compared with B1, B2 is higher in “Classification and statistics of pesticide damage grade Grade 0” value: 0 for the first, 5 for the second.

B3 and B4 are the same in “Classification and statistics of pesticide damage grade Grade 0” value: 0 for the first, 0 for the second.

B5 and B6 are the same in “Classification and statistics of pesticide damage grade Grade 0” value: 0 for the first, 0 for the second.

B7 was tested, and the “Classification and statistics of pesticide damage grade Grade 0” value was 0.

First: B1
Second: B2
The “Classification and statistics of pesticide damage grade Grade 1” value of the first is lower: 0 for the first, 7 for the second.

Going from B3 to B4, the “Classification and statistics of pesticide damage grade Grade 1” value rises from 0 to 4.

First: B5
Second: B6
The “Classification and statistics of pesticide damage grade Grade 1” value of the first is lower: 0 for the first, 8 for the second.

With B7 the “Classification and statistics of pesticide damage grade Grade 1” value was 0.

Going from B1 to B2, the “Classification and statistics of pesticide damage grade Grade 2” value rises from 0 to 4.

Going from B3 to B4, the “Classification and statistics of pesticide damage grade Grade 2” value rises from 0 to 12.

Compared with B5, B6 is higher in “Classification and statistics of pesticide damage grade Grade 2” value: 0 for the first, 8 for the second.

For B7, the “Classification and statistics of pesticide damage grade Grade 2” value was 0.

Compared with B1, B2 is lower in “Classification and statistics of pesticide damage grade Grade 3” value: 16 for the first, 0 for the second.

Going from B3 to B4, the “Classification and statistics of pesticide damage grade Grade 3” value falls from 16 to 0.

Compared with B5, B6 is lower in “Classification and statistics of pesticide damage grade Grade 3” value: 16 for the first, 0 for the second.

For B7, the “Classification and statistics of pesticide damage grade Grade 3” value was 16.

Same assay, conditions: HPPDs from different species; number of plants (of 16) in this grade; topramezone 100 g ai/ha (4x), 7 DAT

B1 and B2 are the same in “Classification and statistics of pesticide damage grade Grade 0” value: 0 for the first, 0 for the second.

B3 and B4 are the same in “Classification and statistics of pesticide damage grade Grade 0” value: 0 for the first, 0 for the second.

B5 and B6 are the same in “Classification and statistics of pesticide damage grade Grade 0” value: 0 for the first, 0 for the second.

With B7 the “Classification and statistics of pesticide damage grade Grade 0” value was 0.

First: B1
Second: B2
The “Classification and statistics of pesticide damage grade Grade 1” value of the first is lower: 0 for the first, 4 for the second.

B3 and B4 are the same in “Classification and statistics of pesticide damage grade Grade 1” value: 0 for the first, 0 for the second.

Going from B5 to B6, the “Classification and statistics of pesticide damage grade Grade 1” value rises from 0 to 2.

For B7, the “Classification and statistics of pesticide damage grade Grade 1” value was 0.

First: B1
Second: B2
The “Classification and statistics of pesticide damage grade Grade 2” value of the first is lower: 0 for the first, 9 for the second.

B3 and B4 are the same in “Classification and statistics of pesticide damage grade Grade 2” value: 0 for the first, 0 for the second.

First: B5
Second: B6
The “Classification and statistics of pesticide damage grade Grade 2” value of the first is lower: 0 for the first, 12 for the second.

In the case of B7, the “Classification and statistics of pesticide damage grade Grade 2” value is reported as 0.

Going from B1 to B2, the “Classification and statistics of pesticide damage grade Grade 3” value falls from 16 to 3.

B3 and B4 are the same in “Classification and statistics of pesticide damage grade Grade 3” value: 16 for the first, 16 for the second.

First: B5
Second: B6
The “Classification and statistics of pesticide damage grade Grade 3” value of the first is higher: 16 for the first, 2 for the second.

With B7 the “Classification and statistics of pesticide damage grade Grade 3” value was 16.

Same assay, conditions: HPPDs from different species; score for pesticide damage 0-100; topramezone 25 g ai/ha (1x), 7 DAT

Going from B1 to B2, the Scores falls from 100 to 31.

First: B3
Second: B4
The Scores of the first is higher: 100 for the first, 58 for the second.

Going from B5 to B6, the Scores falls from 100 to 50.

B7 gave a Scores of 100.

Same assay, conditions: HPPDs from different species; score for pesticide damage 0-100; topramezone 100 g ai/ha (4x), 7 DAT

Going from B1 to B2, the Scores falls from 100 to 65.

B3 and B4 are the same in Scores: 100 for the first, 100 for the second.

Going from B5 to B6, the Scores falls from 100 to 67.

B7 gave a Scores of 100.

Same assay, conditions: HPPDs from different species; topramezone 25 g ai/ha (1x), 7 DAT

With B1 the Resistance evaluation was “non-resistant (non-resistant plants (scores 68-100))”.
B2 was tested, and the Resistance evaluation was “moderately resistant (moderately resistant plants (scores 16-33))”.
In the case of B3, the Resistance evaluation is reported as “non-resistant (non-resistant plants (scores 68-100))”.
For B4, the Resistance evaluation was “poorly resistant (poorly resistant plants (scores 34-67))”.
For B5, the Resistance evaluation was “non-resistant (non-resistant plants (scores 68-100))”.
B6 was tested, and the Resistance evaluation was “poorly resistant (poorly resistant plants (scores 34-67))”.
In the case of B7, the Resistance evaluation is reported as “non-resistant (non-resistant plants (scores 68-100))”.

Same assay, conditions: HPPDs from different species; topramezone 100 g ai/ha (4x), 7 DAT

With B1 the Resistance evaluation was “non-resistant (non-resistant plants (scores 68-100))”.
For B2, the Resistance evaluation was “poorly resistant (poorly resistant plants (scores 34-67))”.
For B3, the Resistance evaluation was “non-resistant (non-resistant plants (scores 68-100))”.
With B4 the Resistance evaluation was “non-resistant (non-resistant plants (scores 68-100))”.
In the case of B5, the Resistance evaluation is reported as “non-resistant (non-resistant plants (scores 68-100))”.
With B6 the Resistance evaluation was “poorly resistant (poorly resistant plants (scores 34-67))”.
For B7, the Resistance evaluation was “non-resistant (non-resistant plants (scores 68-100))”.
